Assay results from the supplement of paper PMC9170038.

Test system: MS2 coat protein
Assay: apparent KD of MS2 coat protein; designed switch direction (-1 OFF switch, 1 ON switch): -1; higher = weaker reporter binding
In short: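 On Illumina chips, designed RNA switches with common flanks were made by stalled E. coli RNA polymerase. Titrations with SNAP-549-labelled MS2 coat protein, doubling from 0.7 or 1.5 nM to 3 µM, were done with no input, with 200 uM small-molecule ligand, or with an oligonucleotide input. Apparent KD is the median per design over clusters, from curve fits of normalised cluster fluorescence.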

[1] = Eterna round: R95, input ligand: FMN 200 uM
[2] = Eterna round: R95, input ligand: microRNA oligo, concentration not stated
[3] = Eterna round: R95, input ligand: none
[4] = input ligand: microRNA oligo, concentration not stated

Sequence | apparent KD of MS2 coat protein [1] [nM] | apparent KD of MS2 coat protein [2] [nM] | apparent KD of MS2 coat protein [3] [nM] | apparent KD of MS2 coat protein [4] [nM] | apparent KD of MS2 coat protein (input ligand: FMN 200 uM) [nM] | apparent KD of MS2 coat protein (input ligand: none) [nM]
AUGAGACAUGAGGAUCACCCAUGUGAGGAUAUGUAUGGAUGGUAGAAAGAAUGAAAGAACAGAAGGCACGUAGA [JR_Exclu1_Sub061] (puzzle: Exclusion 1) | 143 | 150 | 210 | – | – | –
AUGAGAGCAGGAUAUGCAGGUGUGCCGGAAGAAAGAAGAAGACAUGAGGAUCACCCAUGUAGAAGGGCUAGCCC [Bibidi] (Eterna round: R96, puzzle: Exclusion 2) | – | – | – | 15.2 | – | –
AUGAGCAGACGGAGAUCCAACAUGAGGAUCACCCAUGUCUCAAAAGCUUUUUGCUCAUCUUAUCGUACCUUGGUGCA [Mat - Sensor v3 - turn-off var 1 - JL Mod - D14] (puzzle: Sensor v3, turn-off variant 1) | 191 | 13.2 | 197 | – | – | –
AUGAGGUUAGGAUAUACAUGAGGAUCACCCAUGUUGGAGGGUAAGGUAGGAGAAGAAAGUAGAAGGAACGGAGC [JR_Exclu3_Sub058] (puzzle: Exclusion 3) | 68.4 | 82.5 | 99.6 | – | – | –
AUGAGUUGAGGAUAUACGUGAGGCGUUAACGCCGCCAGUCAACAUGAGGAUCACCCAUGUAGAAGGCAACCGUC [Eternabot (L1) Solution 6] (Eterna round: R97, puzzle: Exclusion 2) | – | – | – | – | 22.1 | 19.7
AUGAUGCAGUGAGGAUAUACAUGAGGAUCACCCAUGUUUUUUUUUUUAGAUACACUCCUUUUUUUGUAGAAGGCACUAUGAGUA [Skinny design] (Eterna round: R96, puzzle: Exclusion NG 2) | – | – | – | 24 | 121 | 46.3
AUGAUGUGAGGAUAUUAGUAGGGUAGCAGAUGACUGCCUAAUAAGAAGGCACAUGAGGAUCACCCAUGUUCACU [Eternabot (L2) Solution 11] (Eterna round: R97, puzzle: Exclusion 4) | – | – | – | – | 135 | 63.5
AUGCGUGGCUAGGAUAUUGAGGAAUUUAGCCAGCGAGAAGGAGCCACAUGAGGAUCACCCAUGUGGUGAACCUC [jl-ex6-4.60 ViennaUCT mod] (Eterna round: R97, puzzle: Exclusion 6) | – | – | – | – | 17.7 | 18.5
AUGCUCCGUGUAGGAUAUCGCCGUAUCACUCGGCGAGAAGGACAUGAGGAUCACCCAUGUAUGUUAUUAUCACGUGUGGCGCGC [Design 45] (Eterna round: R96, puzzle: Exclusion NG 1) | – | – | – | 14.8 | 55.2 | 18.3
AUGGAACAUGAGGAUCACCCAUGUGAGGAUAUGUGAGAAGGAUUUGAGAUGGAGAGGGACAGAAGGCACUAGGA [JR_Exclu1_Sub082] (puzzle: Exclusion 1) | – | 37.6 | – | – | – | –
AUGGGUACUUUCGGAACGACAUGAGGAUCACCCAUGUAUACUGAGGAUAUCCACUACUAAGGACGGGAGAAGGCAGUGUACUGU [Ex NG3 #80] (Eterna round: R96, puzzle: Exclusion NG 3) | – | – | – | 12.1 | 27 | 18.5
AUGGGUACUUUCGGAGCGACAUGAGGAUCACCCAUGUAUAUUGAGGAUAUCCACUACUAAGGACGGGAGAAGGCAGUGUACUGU [Ex NG3 #81] (Eterna round: R96, puzzle: Exclusion NG 3) | – | – | – | 29.2 | 53.3 | 46.4
AUGGGUCCUCACGGAGCUACAUGAGGAUCACCCAUGUGUAUUGAGGAUAUCCACUGCCGACGGCUGGAGAAGGCAGUGUACUGU [Ex NG3 #93] (Eterna round: R96, puzzle: Exclusion NG 3) | – | – | – | 61.5 | 97.8 | 109
AUGGGUCCUCUCGGAGCGACAUGAGGAUCACCCAUGUGUGUUGAGGAUAUCCACUGCUCAGGACGGGAGAAGGCAGUGUACUGU [Ex NG3 #86] (Eterna round: R96, puzzle: Exclusion NG 3) | – | – | – | 32.5 | 55.9 | 48.8
AUGGGUCCUUUCGGAGCGACAUGAGGAUCACCCAUGUGUGUUGAGGAUAUCCACUGCUAAGGACGGGAGAAGGCAGUGUACUGU [Ex NG3 #84] (Eterna round: R96, puzzle: Exclusion NG 3) | – | – | – | 26.7 | 36.2 | 49.4
AUGGUACAUGAGGAUCACCCAUGUUAGGAUAUCGCGUGAUCUAAAACUAAGAGACACACGAGAAGGGACGACAU (puzzle: Exclusion 1) | – | 128 | – | – | – | –

Sequence | apparent KD of MS2 coat protein [1] [nM] | apparent KD of MS2 coat protein [2] [nM] | apparent KD of MS2 coat protein [3] [nM] | apparent KD of MS2 coat protein [4] [nM] | apparent KD of MS2 coat protein (input ligand: FMN 200 uM) [nM] | apparent KD of MS2 coat protein (input ligand: none) [nM]
AUGGUAUUAGGAUAUACAUGAGGAUCACCCAUGUGGCAUCAUGCGGUGCCGACCUACUGUAGAAGGAGUGUAAA [Eternabot (L1) Solution 64] (Eterna round: R97, puzzle: Exclusion 3) | – | – | – | – | 51.3 | 59
AUGUACCGGUGAGGAUAUUUUUAAUAGAACUUUAUGAUAUACAUGAGGAUCACCCAUGUUACUUUAAAGAAGGCAUCGGAUUAA [Mat - Exclusion NG 2 - Mod of JL - D85] (Eterna round: R96, puzzle: Exclusion NG 2) | – | – | – | 13.8 | – | –
AUGUGCACGCUGCGAUCCUACAUGAGGAUCACCCAUGUGGUCUGGUGGCGUGGGUCACCGGACUUGGCUCGUCUUGC [salish99_S_TOV1_R5_074] (Eterna round: R97, puzzle: Sensor, turn-off variant 1) | – | – | – | – | 28.1 | 27.6
AUGUGCACGCUGCGGUCCUACAUGAGGAUCACCCAUGUGGUCUGGUGGCGUGGGUCACCGGACUUGGCUCGUCUUGG [salish99_S_TOV1_R5_057] (Eterna round: R97, puzzle: Sensor, turn-off variant 1) | – | – | – | – | 22.4 | 24.3
AUGUGCACGCUGCGGUCCUACAUGAGGAUCACCCAUGUGGUCUGGUGGCGUGGGUCGCCGGACUUGGCUCGUCUUGA [salish99_S_TOV1_R5_029] (Eterna round: R97, puzzle: Sensor, turn-off variant 1) | – | – | – | – | 17.9 | 18.2
AUGUGUAUAGUGAGGAUAUUGCCCAGGAAAUAGGGCAAGAAGGCACAUGAGGAUCACCCAUGUGGAUGUUCUGA [Eternabot (L2) Solution 85] (Eterna round: R97, puzzle: Brourd's mod of Exclusion 4) | – | – | – | – | 412 | 37.5
AUGUUAUUGGAAGGAUAUAGUUUACUAUUCUAACAUGAGGAUCACCCAUGUAACCUUAUGUGUAUCUAGAAGGUCCAUAACUUA (Eterna round: R96, puzzle: Exclusion NG 2) | – | – | – | 46.4 | – | –
AUGUUAUUGGAAGGAUAUGGUUUACUAUCCUAACAUGAGGAUCACCCAUGUAACCUUAUGUGUAUCCAGAAGGUCCAUAACUUA (Eterna round: R96, puzzle: Exclusion NG 2) | – | – | – | 22.8 | 51.9 | 32.2
AUGUUGCGAGGAUAUAUAAGGGUAUAUUCUUAAGAUAUGGAACAUGAGGAUCACCCAUGUAGAAGGUGCAUAAC [JR_Ex2_Sub043] (Eterna round: R97, puzzle: Exclusion 2) | – | – | – | – | 79.1 | 73
AUUAAAAUAUAGGAUAUCGAAUUUAUUAUUUAACGAGAAGGAUGAACAUGAGGAUCACCCAUGUGGUAUCAUGG [Mat - Exclusion 6 - JL Mod - D35] (puzzle: Exclusion 6) | 177 | 156 | 189 | – | – | –
AUUAAACAUGUAGGAUAUGCGUGGCAAAGCUAUGCAGAAGGACAUGAGGAUCACCCAUGUAAAAGCGUCUGAGUACAGAUGCAA [Mat - Exclusion NG 1 - Mod of JL - D87] (Eterna round: R96, puzzle: Exclusion NG 1) | – | – | – | 61.5 | 374 | 62.9
AUUAAACAUGUAGGAUAUGCGUGGCGAAGCUAUGCAGAAGGACAUGAGGAUCACCCAUGUUUUAGCGUCUGCGUACAGAUGCAA [JL ENG1 1.38] (Eterna round: R96, puzzle: Exclusion NG 1) | – | – | – | 17.8 | 218 | 30.3
AUUAAGCAGCAGGAUAUAAGUAUCUAAAGGUGGUUAGAAGGGCUGACAUGAGGAUCACCCAUGUGCUCUUCGUG [Reusat] (puzzle: Exclusion 6) | – | 13.3 | – | – | – | –
AUUAAGCAGCAGGAUAUAAUUAUCUGAAGGUGGUUAGAAGGGCUGACAUGAGGAUCACCCAUGUGCUCUUCGUG [Diries] (puzzle: Exclusion 6) | – | 14.7 | – | – | – | –
AUUAAUCAGCAGGAUAUAAGUAUCUGAUGGUGGUUAGAAGGGCUGACAUGAGGAUCACCCAUGUGCUCUUCGUG [Beusbi] (puzzle: Exclusion 6) | – | 11.1 | – | – | – | –
